The target of series [1] is BaPif1 E323A/K405A (Bacteroides sp (abstract); Bacterioides fragilis (methods)).
Series [2] deals with BaPif1 H236A (Bacteroides fragilis (title/abstract: Bacteroides sp)) (UniProt A0A373G551). Description: fluorescence polarization. The settings on record: Fluorescence polarization: 2.5 nM T15-3'F, buffer and temperature not in the material; crystals: 80 mM NaCl, 40 mM sodium cacodylate pH 6.0, 35% MPD, 12 mM ….
In series [3] the target is BaPif1 wild type (Bacteroides fragilis (title/abstract: Bacteroides sp)) (UniProt A0A373G551). The experiment in a line: fluorescence polarization. The settings on record: Fluorescence polarization: 2.5 nM T15-3'F, buffer and temperature not in the material; crystals: 80 mM NaCl, 40 mM sodium cacodylate pH 6.0, 35% MPD, 12 mM ….
Series [4] deals with BaPif1 F379A (Bacteroides fragilis (title/abstract: Bacteroides sp)) (UniProt A0A373G551). The experiment in a line: fluorescence polarization. To be noted: Fluorescence polarization: 2.5 nM T15-3'F, buffer and temperature not in the material; crystals: 80 mM NaCl, 40 mM sodium cacodylate pH 6.0, 35% MPD, 12 mM ….
For series [5], the target named is BaPif1 (Bacteroides fragilis, UniProt Z9XEH3VG65). The settings on record: ssDNA-stimulated ATPase.
Series [6] has as its system BaPif1. To be noted: ssDNA-stimulated ATPase.

This note sets out measurements from PMC6879534, “Structural basis for DNA unwinding at forked dsDNA by two coordinating Pif1 helicases” (Nature Communications, 2019).

Chain of BaPif1 (5FHD_1 entry or part of it E323K): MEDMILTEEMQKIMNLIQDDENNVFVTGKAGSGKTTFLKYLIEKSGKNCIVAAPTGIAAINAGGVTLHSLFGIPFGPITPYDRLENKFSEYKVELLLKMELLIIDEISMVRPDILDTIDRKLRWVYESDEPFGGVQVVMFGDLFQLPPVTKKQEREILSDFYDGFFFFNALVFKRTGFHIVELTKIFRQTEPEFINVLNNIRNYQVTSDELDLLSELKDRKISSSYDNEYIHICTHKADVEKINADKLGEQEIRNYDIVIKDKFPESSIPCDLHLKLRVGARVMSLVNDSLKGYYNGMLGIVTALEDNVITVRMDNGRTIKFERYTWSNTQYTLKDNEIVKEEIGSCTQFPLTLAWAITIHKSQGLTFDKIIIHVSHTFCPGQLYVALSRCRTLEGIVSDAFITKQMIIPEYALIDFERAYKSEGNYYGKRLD

For BaPif1 E323A/K405A (enzyme), in series [1], the rate of unwinding of the leading duplex (rapid chemical quench flow, single turnover) came out at 33 s⁻¹ and the rate of unwinding of the parental duplex (rapid chemical quench flow, single turnover) turned out to be 31 s⁻¹.

As for TTTTTTTTTTTTTTT [T15-3'F], the equilibrium dissociation constant (Kd) in series [2] is 200 nM; in series [3], 74 nM; in series [4] it was 250 nM.

Consider `Nc1ncnc2c1ncn2[C@@H]1O[C@H](COP(=O)(O)OP(=O)(O)OP(=O)(O)O)[C@@H](O)[C@H]1O` [ATP], for which the ATP hydrolysis rate result is “only slightly increased relative to the wild type enzyme” on BaPif1 [5]; “The rates of ATP hydrolysis by both the E323A/K405A and E323K variants” in the series with BaPif1 [6].
